Experimental data taken from the supplement of paper PMC9112550, “Optimization of the antimicrobial peptide Bac7 by deep mutational scanning” (BMC Biology, 2022).

Test system: Escherichia coli TOP10
Experiment: shrunken log2 fold change of peptide-encoding DNA abundance (4.5 h post-induction vs induction); higher = less antimicrobial activity (less host growth inhibition)
Details: time post-induction: 4.5 h; library: site-saturation at positions 5, 18, 19, 20
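Also: peptides expressed intracellularly from a pBAD plasmid library in pooled LB shake-flask culture, induced with 0.3% L-arabinose, DNA abundance read by NGS, three biological replicates, DESeq2 with apeglm shrinkage.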

| Sequence | shrunken log2 fold change |
| --- | --- |
| RRIRHRPPRLPRPRPRPGKEPRP | -0.0977 |
| RRIRHRPPRLPRPRPRPGNGPRP | 0.278 |
| RRIRHRPPRLPRPRPRPGNRPRP | 0.013 |
| RRIRHRPPRLPRPRPRPGPEPRP | 1.6 |
| RRIRHRPPRLPRPRPRPGPRPRP | 0.417 |
| RRIRHRPPRLPRPRPRPGPSPRP | 0.188 |
| RRIRHRPPRLPRPRPRPGRWPRP | 0.413 |
| RRIRHRPPRLPRPRPRPGSHPRP | -0.226 |
| RRIRHRPPRLPRPRPRPGVHPRP | -0.9 |
| RRIRHRPPRLPRPRPRPGVIPRP | -0.0357 |
| RRIRHRPPRLPRPRPRPGVLPRP | 0.0408 |
| RRIRHRPPRLPRPRPRPGWAPRP | 0.344 |
| RRIRHRPPRLPRPRPRPGWQPRP | 0.33 |
| RRIRHRPPRLPRPRPRPHARPRP | 0.0947 |
| RRIRHRPPRLPRPRPRPHCKPRP | -0.0178 |
| RRIRHRPPRLPRPRPRPHDDPRP | -0.0997 |
| RRIRHRPPRLPRPRPRPHFWPRP | -0.0607 |
| RRIRHRPPRLPRPRPRPHHAPRP | -0.0366 |
| RRIRHRPPRLPRPRPRPHHPPRP | 0.0301 |
| RRIRHRPPRLPRPRPRPHKGPRP | -0.277 |
| RRIRHRPPRLPRPRPRPHMKPRP | 0.181 |
| RRIRHRPPRLPRPRPRPHNMPRP | -0.364 |
| RRIRHRPPRLPRPRPRPHPEPRP | 0.0129 |
| RRIRHRPPRLPRPRPRPHQFPRP | 0.0262 |
| RRIRHRPPRLPRPRPRPHRAPRP | 0.0912 |

| Sequence | shrunken log2 fold change |
| --- | --- |
| RRIRHRPPRLPRPRPRPHRFPRP | -0.162 |
| RRIRHRPPRLPRPRPRPHSTPRP | -0.349 |
| RRIRHRPPRLPRPRPRPHTCPRP | -0.141 |
| RRIRHRPPRLPRPRPRPHYSPRP | -0.142 |
| RRIRHRPPRLPRPRPRPHYWPRP | -0.588 |
| RRIRHRPPRLPRPRPRPIDSPRP | -0.0116 |
| RRIRHRPPRLPRPRPRPIFKPRP | -0.195 |
| RRIRHRPPRLPRPRPRPIFTPRP | -0.191 |
| RRIRHRPPRLPRPRPRPIGHPRP | -0.0911 |
| RRIRHRPPRLPRPRPRPIHKPRP | -1.25 |
| RRIRHRPPRLPRPRPRPIHMPRP | -0.141 |
| RRIRHRPPRLPRPRPRPIIKPRP | -0.279 |
| RRIRHRPPRLPRPRPRPIIWPRP | -0.145 |
| RRIRHRPPRLPRPRPRPIKNPRP | -0.563 |
| RRIRHRPPRLPRPRPRPIMTPRP | -0.895 |
| RRIRHRPPRLPRPRPRPINDPRP | -0.887 |
| RRIRHRPPRLPRPRPRPIPFPRP | 0.0406 |
| RRIRHRPPRLPRPRPRPIQFPRP | -0.482 |
| RRIRHRPPRLPRPRPRPIQIPRP | -0.139 |
| RRIRHRPPRLPRPRPRPISFPRP | -0.281 |
| RRIRHRPPRLPRPRPRPIVIPRP | -0.158 |
| RRIRHRPPRLPRPRPRPIWQPRP | -0.123 |
| RRIRHRPPRLPRPRPRPKAQPRP | 0.0148 |
| RRIRHRPPRLPRPRPRPKCWPRP | 0.123 |
| RRIRHRPPRLPRPRPRPKDSPRP | 0.0292 |

| Sequence | shrunken log2 fold change |
| --- | --- |
| RRIRHRPPRLPRPRPRPKENPRP | -0.0597 |
| RRIRHRPPRLPRPRPRPKESPRP | -0.069 |
| RRIRHRPPRLPRPRPRPKFRPRP | -0.317 |
| RRIRHRPPRLPRPRPRPKGNPRP | -0.124 |
| RRIRHRPPRLPRPRPRPKIEPRP | 0.0371 |
| RRIRHRPPRLPRPRPRPKMKPRP | -0.232 |
| RRIRHRPPRLPRPRPRPKNMPRP | -0.231 |
| RRIRHRPPRLPRPRPRPKNTPRP | -0.497 |
| RRIRHRPPRLPRPRPRPKQDPRP | -0.557 |
| RRIRHRPPRLPRPRPRPKRWPRP | 0.293 |
| RRIRHRPPRLPRPRPRPKTRPRP | -0.0214 |
| RRIRHRPPRLPRPRPRPKTWPRP | -0.0101 |
| RRIRHRPPRLPRPRPRPKVCPRP | -0.19 |
| RRIRHRPPRLPRPRPRPKVKPRP | 0.235 |
| RRIRHRPPRLPRPRPRPKVTPRP | -0.62 |
| RRIRHRPPRLPRPRPRPKWQPRP | 0.0671 |
| RRIRHRPPRLPRPRPRPKWRPRP | 0.328 |
| RRIRHRPPRLPRPRPRPKYGPRP | 0.0196 |
| RRIRHRPPRLPRPRPRPLAHPRP | 0.0514 |
| RRIRHRPPRLPRPRPRPLAMPRP | 0.287 |
| RRIRHRPPRLPRPRPRPLCLPRP | -0.368 |
| RRIRHRPPRLPRPRPRPLCMPRP | -0.708 |
| RRIRHRPPRLPRPRPRPLDQPRP | -0.116 |
| RRIRHRPPRLPRPRPRPLEPPRP | -0.55 |
| RRIRHRPPRLPRPRPRPLEYPRP | -0.168 |
